The results in this text go back to US20110311544A1.

For test [1], the target named is CD71 (transferrin receptor) on human tumour cell lines (human) (UniProt P02786). Briefly: flow cytometry, biotin-OKT9 on A375 cells after pre-incubation with control ascites NS1 at 4° C. (no competitor).
Test [2] has the same target. In words: flow cytometry, biotin-OKT9 on A375 cells after pre-incubation with control ascites NS1 at 37° C. (no competitor). On the technique in general: A flow cytometer gives signals particle by particle.
Test [3] shares this target. Briefly: quantitative flow cytometry on A375 cells, background control, medium human AB serum, no Tf-Fe.
For test [4] the target is unchanged. In words: quantitative flow cytometry on A375 cells, background control, medium FCS, with Tf-Fe.
Test [5] shares this target. Briefly: quantitative flow cytometry on A375 cells, background control, medium FCS, no Tf-Fe.
Test [6] has the same target. Briefly: quantitative flow cytometry on A375 cells, background control, medium human AB serum, with Tf-Fe.

Chain of UniProt P02786 (P02786 whole entry): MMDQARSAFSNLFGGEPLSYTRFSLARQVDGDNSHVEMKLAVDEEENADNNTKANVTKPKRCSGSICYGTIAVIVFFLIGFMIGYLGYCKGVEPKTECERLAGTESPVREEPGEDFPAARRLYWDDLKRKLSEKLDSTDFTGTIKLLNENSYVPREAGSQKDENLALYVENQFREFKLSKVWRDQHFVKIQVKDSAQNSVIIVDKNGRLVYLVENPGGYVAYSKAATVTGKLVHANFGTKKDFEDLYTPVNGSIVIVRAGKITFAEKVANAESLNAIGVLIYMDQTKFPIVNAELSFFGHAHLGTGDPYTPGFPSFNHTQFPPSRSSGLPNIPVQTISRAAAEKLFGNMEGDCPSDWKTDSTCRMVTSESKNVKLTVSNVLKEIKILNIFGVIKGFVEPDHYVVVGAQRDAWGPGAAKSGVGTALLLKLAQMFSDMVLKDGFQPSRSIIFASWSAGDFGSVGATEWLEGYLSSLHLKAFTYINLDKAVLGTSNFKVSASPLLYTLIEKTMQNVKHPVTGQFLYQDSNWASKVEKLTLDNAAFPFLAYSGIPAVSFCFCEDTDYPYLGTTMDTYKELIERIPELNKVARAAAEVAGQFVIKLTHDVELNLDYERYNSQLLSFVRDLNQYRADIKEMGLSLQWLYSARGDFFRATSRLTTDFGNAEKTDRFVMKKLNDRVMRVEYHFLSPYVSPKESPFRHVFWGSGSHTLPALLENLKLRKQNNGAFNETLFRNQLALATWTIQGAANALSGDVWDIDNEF

For “biotin-labeled anti-CD71 mAb OKT9 (antibody)”, the Mean Fluorescence intensity in test [1] came out at 6.53; in test [2], 8.84.

As to control ascites NS1, the Sites was 5790 sites in test [3], 3310 sites in test [4], 3250 sites in test [5] and 5790 sites in test [6].
